According to US20250084176A1 (F STAR BETA, published 2025):

How the values were obtained:
[1] = molecular target: T1, human CD137, full length, on cells (human, UniProt Q07011 24-255); test: cell-based or functional assay
[2] = molecular target: T1, human CD137, full length, on cells; test: cell-based or functional assay; remark: listed apart in the source
[3] = molecular target: T1, human CD137, full length, on cells; test: cell-based or functional assay; remark: listed apart in the source
[4] = molecular target: T1, human CD137, full length, on cells; test: flow cytometry on CD137low DO11.10 cells (ABC 14,208), anti-human IgG-PE detection, geometric mean PE
Protocol: (§1) A range of DO11.10 cells expressing different levels of CD137 were produced as described in Example 3.5. To determine the relative expression of CD137 in each cell line, the antibody binding capacity (ABC) was determined according to manufacturer's protocol (Quantum™ Simply Cellular® #816 Bangs Labs).
(§2) All antibodies tested were diluted in FACS buffer in 120 μl. DO11.10 cells were then centrifuged, supernatant removed and cells resuspended in 100 μl of each antibody dilution and incubated at 4° C. for 45 min. Cells were washed twice by centrifugation with 150 μl FACS buffer, resuspended in 100 μl containing goat anti-human IgG (γ-chain specific) F (ab′) 2 fragment-R-Phycoerythrin antibody (Sigma, P8047) diluted 1:1000 in FACS buffer and incubated at 4° C. for 45 min. The cells were washed once with 150 μl FACS buffer and then with 150 μl DPBS, resuspended in 150 μl DPBS containing DAPI (Biotium, 40043) at 1:10.000 and read on the BDCantoll or iQue (Intellicyt). Data was analysed using FlowJo v10 to determine the signal geometric mean for PE for live cells in each well.

[5] = molecular target: T1, human CD137, full length, on cells; test: flow cytometry on CD137int DO11.10 cells (ABC 404,597), anti-human IgG-PE detection, geometric mean PE
Protocol: as §1, §2

[6] = molecular target: T1, human CD137, full length, on cells; test: flow cytometry on CD137int/low DO11.10 cells (ABC 143,065), anti-human IgG-PE detection, geometric mean PE
Protocol: as §1, §2

[7] = molecular target: mouse CD137, full length, on cells (mouse, UniProt P20334 24-256); test: cell-based or functional assay
human CD40 = human CD40 (human, UniProt P25942 21-193); test: SPR (Biacore T200), receptor amine-coupled to CM5 chip
Chain of human CD40 (P25942 21-193 limits assumed): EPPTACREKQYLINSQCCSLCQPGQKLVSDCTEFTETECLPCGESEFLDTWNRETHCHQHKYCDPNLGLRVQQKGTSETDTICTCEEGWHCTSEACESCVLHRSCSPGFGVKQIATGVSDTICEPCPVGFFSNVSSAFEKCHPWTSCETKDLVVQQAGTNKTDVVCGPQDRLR

human OX40 = molecular target: T2, human OX40 (human, UniProt P43489 29-216, limits assumed); test: as above
T2 sequence (looked up): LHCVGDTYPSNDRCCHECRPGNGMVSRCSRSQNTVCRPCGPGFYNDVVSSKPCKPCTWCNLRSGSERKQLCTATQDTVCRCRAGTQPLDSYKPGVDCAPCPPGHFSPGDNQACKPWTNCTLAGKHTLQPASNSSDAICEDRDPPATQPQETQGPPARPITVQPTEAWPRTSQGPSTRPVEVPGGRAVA

human GITR = molecular target: T3, human GITR (human, UniProt Q9Y5U5 26-161, limits assumed); test: as above
T3 sequence (looked up): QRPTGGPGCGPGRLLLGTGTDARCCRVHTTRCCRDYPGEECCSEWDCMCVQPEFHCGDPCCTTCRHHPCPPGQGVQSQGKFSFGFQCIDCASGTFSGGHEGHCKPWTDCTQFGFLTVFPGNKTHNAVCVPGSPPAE

hCD137-mFc-Avi [8] = molecular target: T4, hCD137-mFc-Avi (human; mouse, UniProt Q07011 24-186, one biotin on the Avi sequence of each monomer (BirA); unbiotinylated in the SPR of Example 5.6); test: SPR (Biacore), mAb2 captured by anti-human Fab, antigen in solution, 1:1 Langmuir
T4 construct: Made in-house in HEK293-6E; also called human CD137-mFc-Avi; dimeric human CD137; not shown: mouse IgG2a Fc domain (mIgG2a Fc)
T4 sequence (Q07011 24-186): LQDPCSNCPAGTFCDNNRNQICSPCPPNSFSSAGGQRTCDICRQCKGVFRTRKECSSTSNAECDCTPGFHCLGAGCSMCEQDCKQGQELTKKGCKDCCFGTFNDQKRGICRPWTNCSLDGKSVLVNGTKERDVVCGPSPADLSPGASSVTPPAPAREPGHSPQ
Protocol: (§3) An anti-human Fab capture antibody was immobilised on all four flow cells of a CM5 series S chip (GE Healthcare #BR-1005-30) to an average surface density of 6000 RU following the manufacturer's recommendations (GE Healthcare, human Fab capture Kit, #28958325). IEach mAb² was captured to approximately 150 RU by injecting a 3 μg/ml solution of mAb² diluted in HBS-EP+ buffer (GE Healthcare #BR1006-69) for 60 seconds at 30 μl/min. Then different concentrations of human, cyno or mouse CD137 antigen (unbiotinylated human, cyno or mouse CD137-mFc-Avi or human CD137-Avi-His) in HBS-EP+ buffer were flowed over the chip for 3 min at 60 μl/min and then allowed to dissociate for 10 minutes. After each antigen concentration the chip was regenerated by infecting 10 mM glycine pH 2.1 at a flow rate of 30 μl/min for 30 seconds. Buffer HBS-EP+ was injected before the highest concentration of antigen and after the lowest concentration of antigen for reference subtraction, and one of the concentrations at random was repeated twice. The binding kinetics were fit with a 1:1 Langmuir model to generate equilibrium binding constants (KD) for each sample. Data analysis was performed with BiaEvaluation software version 3.2.

hCD137-Avi-His = molecular target: T5, hCD137-Avi-His (human, UniProt Q07011 24-186, single biotin on the Avi sequence (BirA); unbiotinylated in the SPR of Example 5.6); test: as above
T5 construct: also called human CD137-Avi-His; monomeric human CD137
T5 sequence (Q07011 24-186): as above
Protocol: as §3

cCD137-mFc-Avi = molecular target: T6, cCD137-mFc-Avi (cynomolgus; mouse, one biotin on the Avi sequence of each monomer (BirA); unbiotinylated in the SPR of Example 5.6); test: as above
T6 construct: also called cyno CD137-mFc-Avi; dimeric cynomolgus CD137; not shown: mouse IgG2a Fc domain (mIgG2a Fc)
T6 chain: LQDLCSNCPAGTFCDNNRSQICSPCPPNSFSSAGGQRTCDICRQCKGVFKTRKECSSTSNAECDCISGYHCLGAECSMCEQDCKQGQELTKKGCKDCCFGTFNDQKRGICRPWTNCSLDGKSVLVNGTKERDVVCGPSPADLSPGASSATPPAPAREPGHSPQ
Protocol: as §3

mCD137-mFc-Avi = molecular target: T7, mCD137-mFc-Avi (mouse, UniProt P20334 24-187, one biotin on the Avi sequence of each monomer (BirA); unbiotinylated in the SPR of Example 5.6); test: as above
T7 construct: also called mouse CD137-mFc-Avi; dimeric mouse CD137; not shown: mouse IgG2a Fc domain (mIgG2a Fc)
T7 sequence: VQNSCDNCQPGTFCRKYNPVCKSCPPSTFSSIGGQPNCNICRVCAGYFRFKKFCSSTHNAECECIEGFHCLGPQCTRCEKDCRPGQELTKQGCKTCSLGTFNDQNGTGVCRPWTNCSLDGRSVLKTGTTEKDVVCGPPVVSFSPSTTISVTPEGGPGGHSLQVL
Protocol: as §3

hCD137-mFc-Avi [9] = molecular target: T4, hCD137-mFc-Avi; test: SPR (Biacore T200), mAb2 captured by anti-human Fab, hCD137-mFc in solution, 1:1 Langmuir
Protocol: For the hCD137-mFc-Avi antigen the following method was used: an anti-human Fab molecule was immobilised on a CM5 chip to a surface density of between 9,000 and 11,000 response units (RU). The antibodies were diluted to 4 μg/ml in HBS-EP buffer and captured by the anti-Fab molecule with a flow rate of […].
For mCD137-mFc-Avi binding kinetic determination, a different approach was used. […] The analysis of the data was done using the Biacore T200 evaluation software. Curves were subtracted against a blank flow cell and fitted using a 1:1 Langmuir binding model with mass transfer, setting RI to zero as constant and Rₘₐₓ to local.

[10] = molecular target: T1, human CD137, full length, on cells; test: flow cytometry on CD137high DO11.10 cells (ABC 1,206,283), anti-human IgG-PE detection, geometric mean PE
Protocol: as §1, §2

T1 sequence (Q07011 24-255): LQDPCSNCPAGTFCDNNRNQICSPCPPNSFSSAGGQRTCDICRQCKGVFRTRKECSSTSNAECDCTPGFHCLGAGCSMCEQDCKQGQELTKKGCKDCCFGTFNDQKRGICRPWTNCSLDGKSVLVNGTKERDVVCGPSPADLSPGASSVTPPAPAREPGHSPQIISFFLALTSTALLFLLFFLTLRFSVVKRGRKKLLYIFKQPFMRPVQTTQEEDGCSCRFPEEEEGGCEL

B1: G1-AA/20H4.9 (antibody, V domains shown)
VH: QVQLQQWGAGLLKPSETLSLTCAVYGGSFSGYYWSWIRQSPEKGLEWIGEINHGGYVTYNPSLESRVTISVDTSKNQFSLKLSSVTAADTAVYYCARDYGPGNYDWYFDLWGRGTLVTVSS
VL: EIVLTQSPATLSLSPGERATLSCRASQSVSSYLAWYQQKPGQAPRLLIYDASNRATGIPARFSGSGSGTDFTLTISSLEPEDFAVYYCQQRSNWPPALTFGGGTKVEIKR
[1]
  IL-2 release, DO11.10.hCD137 T cell activation assay: EC50: 260 pM
[2]
  hIL-2 release, primary human CD8+ T cells, 20H4.9 (row without XL): EC50: 890 pM
  hIL-2 release, primary human CD8+ T cells, 20H4.9 + XL (anti-hCH2): EC50: 500 pM
[3]
  IL-2 release, human CD137 DO11.10 T cell activation assay, Protein L: +XL EC50: 820 pM
[4]
  EC50 (read off the curve): ~100 pM
[5]
  EC50 (read off the curve): ~100 pM
[6]
  EC50 (read off the curve): ~100 pM

B2: G1-AA/HelD1.3 (antibody, human IgG1, kappa, L234A L235A, V domains shown)
VH: QVQLQESGPGLVRPSQTLSLTCTVSGSTFSGYGVNWVRQPPGRGLEWIGMIWGDGNTDYNSALKSRVTMLVDTSKNQFSLRLSSVTAADTAVYYCARERDYRLDYWGQGSLVTVSS
VL: DIQMTQSPASLSASVGETVTITCRASGNIHNYLAWYQQKQGKSPQLLVYNAKTLADGVPSRFSGSGSGTQYSLKINSLQPEDFGSYYCQHFWSTPRTFGGGTKLEIKR
notes: Anti-hen egg lysozyme human IgG1 with the LALA mutation; also called G1-AA/HeID1.3; G1AA/HeID1.3 mAb (with LALA)
[4]
  binding result: no binding

B3: FS22-053-014/HelD1.3 (bispecific antibody, human IgG1, kappa)
heavy: QVQLQESGPGLVRPSQTLSLTCTVSGSTFSGYGVNWVRQPPGRGLEWIGMIWGDGNTDYNSALKSRVTMLVDTSKNQFSLRLSSVTAADTAVYYCARERDYRLDYWGQGSLVTVSSASTKGPSVFPLAPSSKSTSGGTAALGCLVKDYFPEPVTVSWNSGALTSGVHTFPAVLQSSGLYSLSSVVTVPSSSLGTQTYICNVNHKPSNTKVDKKVEPKSCDKTHTCPPCPAPELLGGPSVFLFPPKPKDTLMISRTPEVTCVVVDVSHEDPEVKFNWYVDGVEVHNAKTKPREEQYNSTYRVVSVLTVLHQDWLNGKEYKCKVSNKALPAPIEKTISKAKGQPREPQVYTLPPSRDELNPPYLFSNQVSLTCLVKGFYPSDIAVEWESNGQPENNYKTTPPVLDSDGSFFLYSKLTVYHWRWLDGNVFSCSVMHEALHNHYTQKSLSLSPG
light: DIQMTQSPASLSASVGETVTITCRASGNIHNYLAWYQQKQGKSPQLLVYNAKTLADGVPSRFSGSGSGTQYSLKINSLQPEDFGSYYCQHFWSTPRTFGGGTKLEIKRTVAAPSVFIFPPSDEQLKSGTASVVCLLNNFYPREAKVQWKVDNALQSGNSQESVTEQDSKDSTYSLSSTLTLSKADYEKHKVYACEVTHQGLSSPVTKSFNRGEC
notes: Mock mAb^2, IgG1 without LALA; also called FS22-053-14; FS22-053-014/HeID1.3
[3]
  IL-2 release, human CD137 DO11.10 T cell activation assay, Protein L: +XL EC50: 730 pM
[7]
  IL-2 release, mouse CD137 DO11.10 T cell activation assay, Protein L: +XL EC50: 2040 pM
  IL-2 release, mouse CD137 DO11.10 T cell activation assay, Protein L: +XL Emax: 28100 pg/mL
Human CD40
  binding result: no binding (tested: starting at 1 µM)
Human OX40
  binding result: no binding (tested: starting at 1 µM)
Human GITR
  binding result: no binding (tested: starting at 1 µM)
hCD137-mFc-Avi [8]
  Kd: 3200 pM
hCD137-Avi-His
  Human monomeric CD137 KD fold difference relative to human dimeric KD: 100 fold
cCD137-mFc-Avi
  Kd: 900 pM
mCD137-mFc-Avi
  Kd: 24000 pM
hCD137-mFc-Avi [9]
  Kd: 4400 pM
  koff: 0.000366 s⁻¹
  kon: 83000 M⁻¹ s⁻¹

B4: FS22-172-003-AA/HelD1.3 (bispecific antibody, human IgG1, kappa, L234A L235A)
heavy: QVQLQESGPGLVRPSQTLSLTCTVSGSTFSGYGVNWVRQPPGRGLEWIGMIWGDGNTDYNSALKSRVTMLVDTSKNQFSLRLSSVTAADTAVYYCARERDYRLDYWGQGSLVTVSSASTKGPSVFPLAPSSKSTSGGTAALGCLVKDYFPEPVTVSWNSGALTSGVHTFPAVLQSSGLYSLSSVVTVPSSSLGTQTYICNVNHKPSNTKVDKKVEPKSCDKTHTCPPCPAPEAAGGPSVFLFPPKPKDTLMISRTPEVTCVVVDVSHEDPEVKFNWYVDGVEVHNAKTKPREEQYNSTYRVVSVLTVLHQDWLNGKEYKCKVSNKALPAPIEKTISKAKGQPREPQVYTLPPSRDELPYIIPPYNQVSLTCLVKGFYPSDIAVEWESNGQPENNYKTTPPVLDSDGSFFLYSKLTVGADRWLEGNVFSCSVMHEALHNHYTQKSLSLSPG
light: DIQMTQSPASLSASVGETVTITCRASGNIHNYLAWYQQKQGKSPQLLVYNAKTLADGVPSRFSGSGSGTQYSLKINSLQPEDFGSYYCQHFWSTPRTFGGGTKLEIKRTVAAPSVFIFPPSDEQLKSGTASVVCLLNNFYPREAKVQWKVDNALQSGNSQESVTEQDSKDSTYSLSSTLTLSKADYEKHKVYACEVTHQGLSSPVTKSFNRGEC
notes: Mock mAb^2, IgG1 with LALA
[5]
  EC50 (read off the curve): ~500 pM
[10]
  EC50 (read off the curve): ~500 pM
[6]
  EC50 (read off the curve): ~800 pM
